Test system: HMO1 (Saccharomyces cerevisiae)
Assay: optical tweezers (DNA stretching)
Conditions: Assay buffer, salt, pH and temperature not given in the material (protein stored in 20 mM HEPES pH 7.5, 100 mM KCl, 1 mM EDTA, 1 mM DTT, 5% glycerol)

bacteriophage lambda DNA gave a Kd (from contour length, omega = 18 +/- 5, n = 26 bp) of 1.9 nM, a Kd (from overstretching force, omega = 80 +/- 15, n = 26 bp) of 2.8 nM and a Kd (from persistence length, omega = 20 +/- 7, n = 26 bp) of 2.1 nM.
